Data taken from US20240076389A1 (NATIONAL RESEARCH COUNCIL OF CANADA, published 2024).
Each block holds one binder with its values, some of them ahead of it.

Experiments:
[1] = biological target: T1, human AXL expressed on the cell surface of tumor cell lines (human, UniProt P30530 26-894); test: cell-based or functional assay
T1 sequence (looked up): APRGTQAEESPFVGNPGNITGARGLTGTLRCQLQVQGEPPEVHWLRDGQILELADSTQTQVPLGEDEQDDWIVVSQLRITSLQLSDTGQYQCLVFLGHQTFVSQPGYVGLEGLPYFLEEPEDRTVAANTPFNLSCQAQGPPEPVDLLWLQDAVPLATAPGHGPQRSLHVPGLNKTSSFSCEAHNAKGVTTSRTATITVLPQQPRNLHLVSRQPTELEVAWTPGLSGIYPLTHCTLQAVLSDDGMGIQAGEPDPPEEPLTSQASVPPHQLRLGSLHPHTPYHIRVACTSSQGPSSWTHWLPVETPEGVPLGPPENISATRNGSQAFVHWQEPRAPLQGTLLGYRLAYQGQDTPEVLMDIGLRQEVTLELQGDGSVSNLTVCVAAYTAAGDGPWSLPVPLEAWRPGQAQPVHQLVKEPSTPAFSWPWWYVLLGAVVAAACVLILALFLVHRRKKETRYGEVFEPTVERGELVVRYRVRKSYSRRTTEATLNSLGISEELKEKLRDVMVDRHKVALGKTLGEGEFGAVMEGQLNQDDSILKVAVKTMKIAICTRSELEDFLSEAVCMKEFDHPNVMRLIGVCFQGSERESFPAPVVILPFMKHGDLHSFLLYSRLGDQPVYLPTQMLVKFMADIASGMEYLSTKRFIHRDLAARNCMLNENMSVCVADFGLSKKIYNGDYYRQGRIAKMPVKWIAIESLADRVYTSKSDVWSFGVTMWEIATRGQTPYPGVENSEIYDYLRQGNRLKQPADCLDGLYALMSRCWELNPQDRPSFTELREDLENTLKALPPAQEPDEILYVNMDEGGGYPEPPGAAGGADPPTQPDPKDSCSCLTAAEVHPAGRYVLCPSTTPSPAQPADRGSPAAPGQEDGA

[2] = biological target: T2, recombinant human AXL extracellular domain, C-terminally His8-tagged (rhAXL-ECD) (human, UniProt P30530 26-451); test: SPR, AXL ECD immobilized, VHH monomer flowed, multi-cycle kinetics
T2 construct: Made in CHO cells; also called (rh)AXL-ECD His8; human AXL ECD
T2 sequence: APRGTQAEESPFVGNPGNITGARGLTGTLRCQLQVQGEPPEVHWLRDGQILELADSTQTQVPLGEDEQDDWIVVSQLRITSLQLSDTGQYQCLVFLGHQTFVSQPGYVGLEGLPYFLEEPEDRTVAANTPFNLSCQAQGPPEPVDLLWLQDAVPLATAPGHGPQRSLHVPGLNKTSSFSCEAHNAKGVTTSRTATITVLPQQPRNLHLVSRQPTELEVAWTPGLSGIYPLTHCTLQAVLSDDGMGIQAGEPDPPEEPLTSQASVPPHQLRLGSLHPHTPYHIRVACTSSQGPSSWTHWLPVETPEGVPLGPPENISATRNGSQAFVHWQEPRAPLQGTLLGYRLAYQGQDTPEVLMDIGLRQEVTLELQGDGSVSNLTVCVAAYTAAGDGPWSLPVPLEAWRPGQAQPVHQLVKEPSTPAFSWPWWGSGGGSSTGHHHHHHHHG
Protocol: (§1) For VH Hs and VHH-Fcs, binding to human and cynomolgus AXL ECD was assessed using either a Biacore T200 instrument or a Biacore 3000 instrument. Either human AXL ECD or anti-human Fc antibody was immobilized on a research-grade CM5 series S sensor chip (T200, rhAXL ECD) or a C1 sensor chip (3000, anti-human Fc) using amine coupling in acetate buffer. VHH-Fcs were captured on anti-human Fc surfaces. Either monomeric VHHs (for rhAXL ECD surfaces) or human and cyno AXL ECD (for VHH-Fc surfaces) were flowed over the surfaces at different concentration ranges. Running buffers were HBS-EP (3000) and HBS-EP+(T200). Flow rates were 10-40 ul/min. All binding studies were performed at 25° C. Surfaces were regenerated using 10 mM glycine, pH 1.5.

[3] = biological target: T2, recombinant human AXL extracellular …; test: SPR Biacore T200, mAb captured on anti-Fc, AXL ECD flowed, single-cycle kinetics
Protocol: (§2) Surface plasmon resonance. For murine mAbs, binding to human and cynomolgus AXL ECD was assessed using a Biacore T200 instrument. Briefly, either anti-mouse or anti-human Fc antibody was immobilized on a research-grade CM5 series S sensor chip using amine coupling in acetate buffer. Murine or recombinant chimeric murine-human mAbs (mouse VH/VL; human constant regions) were captured, then recombinant human or cyno AXL ECD was flowed over the surface at different concentration ranges (0.1-500 nM) depending on the antibody. The running buffer was PBS/Tween-20 and the flow rate 100 uL/min. All binding studies were performed at 25° C. Surfaces were regenerated using 10 mM glycine, pH 1.5.

[4] = biological target: T3, recombinant cynomolgus AXL extracellular domain (cynomolgus); test: as above
T3 construct: range 1-449; also called Cyno AXL; cyno AXL ECD
Protocol: as §2

[5] = biological target: T2, recombinant human AXL extracellular …; test: SPR, AXL ECD immobilized, VHH monomer flowed, single-cycle kinetics
Protocol: as §1

B5: NRC-sdAb006 (VHH monomer) (VHH)
VHH: QVKLEESGGGLVQAGASLRLSCVASESIFGFNTMGWYRQAPGNERELVASISNSKRTMYADSVKGRFTISRDNAKNTVNLQMNNLKPEDTAVYYCRAWGIITSATVYWGQGTQVTVSS
notes: Llama VHH monomer; not shown: 6xHis and Myc tags
- Kd [2]: 19 nM
- koff [2]: 0.0045 s⁻¹
- kon [2]: 240000 M⁻¹ s⁻¹

B6: hFC-F111-3C8 (antibody, human IgG1, kappa, V domains shown)
VH: QVQLQQPGAELGKPGTSVKLSCKASGYTFTSYWMHWVKRVPGQGLEWIGNINPNSTSADYNEKFKRKATLTVDKSSSTAYMQLSTLTSEDSAVYYCTRPLMGPYWYFDVWGTGTTVTVSS
VL: QIVLTQSPAIMSASPGEKVTISCSASSSVSYMYWYQQKPGSSPKPWIYRTSNLASGVPARFSGSGSGTSYSLTISSMEAEDAATYYCQQYHNYPPTFGGGTKLEIKR
notes: Chimeric mAb, human IgG1 / human kappa constant regions; also called mAb F111-3C8; chimeric F111-3C8
- Kd [3]: 12 nM
- koff [3]: 0.001 s⁻¹
- kon [3]: 86000 M⁻¹ s⁻¹
- Kd [4]: 18 nM
- koff [4]: 0.0011 s⁻¹
- kon [4]: 60000 M⁻¹ s⁻¹

B7: NRC-sdAb003 (VHH monomer) (VHH)
VHH: QVQLVESGGGLVQAGGSLRLSCAASGVTLDYTAIGWFRQAPGKERELVAAITSGGNTDYAESAKGRFRISRDNSKNTIYLQMNSLKPEDTGVYYCAARRGGARGEYDYWDQGTQVTVSS
notes: as for B5
- Kd [5]: 955 nM
- koff [5]: 0.0054 s⁻¹
- kon [5]: 8500 M⁻¹ s⁻¹

B9: NRC-sdAb001 (VHH monomer) (VHH)
VHH: QVKLEESGGGLVQAGGSLRLSCTASASISSFDIMGWYRQAPGKQRELVAAITTLDIANYRDSVKGRFTISRDNAKNTVYLQMDSLKPEDTARYHCAAFQSDQNYWGQGTQVTVSS
notes: Llama VHH made as 6xHis- and Myc-tagged monomer in E. coli; not shown: 6xHis and Myc tags
- Kd [5]: 4 nM
- koff [5]: 0.037 s⁻¹
- kon [5]: 8.5e+06 M⁻¹ s⁻¹

B10: NRC-sdAb005 (VHH monomer) (VHH)
VHH: QVKLEESGGGLAQAGGSLRLSCAASGSISSINTIGWFRQAPGKQRELVAASDSGANRNYADSVKGRFTISRDNAKNTVYLQMNNLKPEDTAIYYCRAWGTGTISTMYWGQGTQVTVSS
notes: as for B5
- Kd [2]: 58 nM
- koff [2]: 0.0097 s⁻¹
- kon [2]: 170000 M⁻¹ s⁻¹

The remaining lines, values ahead:

- IC50 of growth inhibition (CellTiterGlo, 5 days) of NCI-H292 cells, -Gas6 [1]: 0.015 nM
- IC50 of growth inhibition of NCI-H292 cells, +Gas6 (2 µg/mL) [1]: 0.013 nM
B1: mIgG-F149-4G4-DM1 (antibody, V domains shown)
VH: QIQLVQSGPELKKPGETVKISCKTSGYTFTYYGINWVKQAPGKGLEWMGWINTYLGEPTYADDFKGRFAFSLETSASTAYLQINNLRDEDMATYFCTRGTMSYSFDYWGQGTALTVSS
VL: QNVLTQSPAIMSASPGEEVTMTCRASSSVSSSYLHWYQQKSGASPKLWIYSTSKLASGVPARFSGSGSGTSYSLTISSVEAEDAATYYCHQYSGDPLTFGSGTKLEVK
modifications: DM1 through SMCC linker on lysine residues of the antibody; sites not given

- IC50 of growth inhibition (CellTiterGlo, 5 days) of NCI-H292 cells, -Gas6 [1]: 0.014 nM
- IC50 of growth inhibition of NCI-H292 cells, +Gas6 (2 µg/mL) [1]: 0.098 nM
B2: hFc-F107-7H5-DM1 (antibody, human IgG1, kappa, V domains shown)
VH: QVQLQQPGAELVKPGASVKLSCKASGYTFTSYWINWVKQRPGQGLEWIGNIYPDSSSTNYNEKFKSKATLTVDKSSTTAYIQFSSLTSEDSAVYYCTRDTYGGSPDYWGQGTTLTVSS
VL: DIVMSQSPSSLAVSAGEKVTMSCKSSQSLLNSRTRKIYLAWYQQKPGQSPKLLIYWASTRQSGVPDRFTGSGSGTDFTLTISSVQAEDLAVYYCKQSYNLWTFGGGTKLEIKR
modifications: DM1 through SMCC linker on lysine residues; sites not given

- IC50 of growth inhibition (CellTiterGlo, 5 days) of NCI-H292 cells, -Gas6 [1]: 0.011 nM
- IC50 of growth inhibition of NCI-H292 cells, +Gas6 (2 µg/mL) [1]: 0.296 nM
B3: hFc-F107-8D12-DM1 (antibody, human IgG1, kappa, V domains shown)
VH: QVQLQQPGAELVKPGASVQLSCKASGYTFISFWINWVKQRPGQGLEWMGNIFPGSSSTNYNEKFKSKATLTVDKSSSTAYMQLSSLTSEDSAVYFCARDYYGGSPDYWGQGTTLTVSS
VL: DIVMSQSPSSLAVSAGERVTMSCKSSQSLLNTRTRKNYLAWYQQKPGQSPKLLIYWASTRESGVPDRFTGSGSGTDFTLTISSVQAEDLAVYYCKQSYNLWTFGGGTKLEIKR
modifications: DM1 through SMCC linker on lysine residues; sites not given

- IC50 of growth inhibition (CellTiterGlo, 5 days) of NCI-H292 cells, -Gas6 [1]: ~1 nM
B4: hFc-F111-5E9-VC-MMAE (antibody, human IgG1, kappa, V domains shown)
VH: QIQLVQSGPELKKPGETVKISCKASGYTFTKYGMNWVKQAPGKGLKWMGWINTYTGEPTYADDFKGRFAFSLETSASTAYLQINNLTTEDMVTYFCAKGGYYSNPIYPMDYWGQGTSVTVSS
VL: DIQMTQTTSSLSASLGDRVTISCRASQDINNYLNWYQQKPDGTVKLLIYYISRLHSGVPSRFSGSGSGTDYSLTISNLELEDVATYFCQQGNTLPFTFGSGTKLEIKR
modifications: VC-MMAE conjugate; attachment sites not given

- IC50 of growth inhibition (CellTiterGlo, 5 days) of NCI-H292 cells, -Gas6 [1]: 0.327 nM
- IC50 of growth inhibition of NCI-H292 cells, +Gas6 (2 µg/mL) [1]: 3.9 nM
B8: mIgG-F155-3C7-DM1 (antibody, V domains shown)
VH: QVQLQQPGTELVKPGASVKLSCKASGYIFTNFWINWVKQRPGQGLEWIGNIFPGSNSSNYNEKFKNKATLTVDKSSSTAYMHLSSLTSEDSAVYYCVRDYYGGSPDYWGQGTTLTVSS
VL: DIVMSQSPSSLAVSAGEKVTMSCKSSQSLLNSKTRKNYLAWYQQKPGQSPKLLIYWASTRESGVPARFTGSGSGTDFTLTISSVQAEDLAIYYCKHSYNLWTFGGGTKLEIR
modifications: DM1 through SMCC linker on lysine residues of the antibody; sites not given
